The text below walks through data of article PMC6561319, “Proteomic Profiling, Transcription Factor Modeling, and Genomics of Evolved Tolerant Strains Elucidate Mechanisms of Vanillin Toxicity in Escherichia coli” (mSystems, 2019).

Substrate in series [1]: COc1cc(C=O)ccc1O
In words: purified protein. In kind it is biochemical, Escherichia coli. The settings on record: 0.1 mM NADPH, 100 mM phosphate pH 7.4, 37°C.

Substrate in series [2]: O=C(O)CC(=O)C(=O)O
In words: purified protein. The class given is biochemical, Escherichia coli. To be noted: 67 μM acetyl-CoA (fixed), 0.2 mM DTNB, 100 mM Tris-HCl pH 8, 37°C.

For orientation: Km means the substrate concentration at which the rate is half of its maximum. In general, kcat refers to the maximal rate divided by the concentration of active sites. Broadly, the Vmax is the top rate of the reaction or transport when substrate is in excess. In general, kcat/Km refers to the second-order rate constant that governs catalysis at low substrate concentration.

B1: DkgA (Escherichia coli K-12) (protein)
chain: ANPTVIKLQDGNVMPQLGLGVWQASNEEVITAIQKALEVGYRSIDTAAAYKNEEGVGKALKNASVNREELFITTKLWNDDHKRPREALLDSLKKLQLDYIDLYLMHWPVPAIDHYVEAWKGMIELQKEGLIKSIGVCNFQIHHLQRLIDETGVTPVINQIELHPLMQQRQLHAWNATHKIQTESWSPLAQGGKGVFDQKVIRDLADKYGKTPAQIVIRWHLDSGLVVIPKSVTPSRIAENFDVWDFRLDKDELGEIAKLDQGKRLGPDPDQFGG
B1: in the series “purified protein [1]”, the Michaelis constant (Km) came to 200 ± 80 µM and the turnover number (kcat) worked out at 0.0467 s⁻¹.

B2: YqhD (Escherichia coli K-12) (protein)
chain: MNNFNLHTPTRILFGKGAIAGLREQIPHDARVLITYGGGSVKKTGVLDQVLDALKGMDVLEFGGIEPNPAYETLMNAVKLVREQKVTFLLAVGGGSVLDGTKFIAAAANYPENIDPWHILQTGGKEIKSAIPMGCVLTLPATGSESNAGAVISRKTTGDKQAFHSAHVQPVFAVLDPVYTYTLPPRQVANGVVDAFVHTVEQYVTKPVDAKIQDRFAEGILLTLIEDGPKALKEPENYDVRANVMWAATQALNGLIGAGVPQDWATHMLGHELTAMHGLDHAQTLAIVLPALWNEKRDTKRAKLLQYAERVWNITEGSDDERIDAAIAATRNFFEQLGVPTHLSDYGLDGSSIPALLKKLEEHGMTQLGENHDITLDVSRRIYEAAR
Turning to B2, in the series “purified protein [1]”, the Km amounted to 270 ± 40 µM and the kcat was 0.103 s⁻¹.

B3: GltA (citrate synthase) (Escherichia coli K-12) (protein)
chain: MADTKAKLTLNGDTAVELDVLKGTLGQDVIDIRTLGSKGVFTFDPGFTSTASCESKITFIDGDEGILLHRGFPIDQLATDSNYLEVCYILLNGEKPTQEQYDEFKTTVTRHTMIHEQITRLFHAFRRDSHPMAVMCGITGALAAFYHDSLDVNNPRHREIAAFRLLSKMPTMAAMCYKYSIGQPFVYPRNDLSYAGNFLNMMFSTPCEPYEVNPILERAMDRILILHADHEQNASTSTVRTAGSSGANPFACIAAGIASLWGPAHGGANEAALKMLEEISSVKHIPEFVRRAKDKNDSFRLMGFGHRVYKNYDPRATVMRETCHEVLKELGTKDDLLEVAMELENIALNDPYFIEKKLYPNVDFYSGIILKAMGIPSSMFTVIFAMARTVGWIAHWSEMHSDGMKIARPRQLYTGYEKRDFKSDIKR
notes: hexamer
In the case of B3, in “purified protein [2]”, the Michaelis-Menten constant (Km) was found to be 154 ± 25 µM, the maximal velocity (Vmax) was found to be 4.8 µmol/min/mg, the turnover number (kcat) is 3.87 ± 0.233 s⁻¹ and the specificity constant (kcat/Km) was found to be 25100 ± 1470 M⁻¹ s⁻¹.
